Results taken from article PMC11233663, “ZBP1 condensate formation synergizes Z-NAs recognition and signal transduction” (Cell Death & Disease, 2024).
Positions count from the first letter of the chain named.

What was measured:
[1] = molecular target: Thioflavin T (ThT); assay: ThT binding assay (ThT fluorescence emission spectrum); details: read off a plot
[2] = molecular target: human ZBP1-Zαβ (residues 1-166) (human) (UniProt Q9H171); assay: SAXS; ZBP1-Zαβ at 5 mg/mL, 20 mM Tris-HCl pH 7.4, 100 mM NaCl
[3] = molecular target: human ZBP1-Zαβ (residues 1-166) (human) (UniProt Q9H171); assay: dynamic light scattering; ZBP1-Zαβ at 5 mg/mL (high concentration), 20 mM Tris-HCl pH 7.4, 100 mM NaCl, room temperature
[4] = molecular target: the molecule itself; assay: negative-staining electron microscopy; purified proteins on carbon films, 0.2% uranyl acetate
[5] = molecular target: the molecule itself; assay: SEC; Superdex 200 10/300, 20 mM Tris-HCl, 1 M NaCl, pH 7.5; elution at the void position
[6] = molecular target: T1, mCherry-ZBP1-Zαβ (Homo sapiens, UniProt Q9H171 1-166); assay: in vitro co-condensation (microscopy); Z-RNA promotes condensates; EMSA: protein 0, 5, 10, 20 nM with 10 nM dsDNA, on ice 1 h, 6% polyacrylamide; protein and DNA stocks in 20 mM Tris-HCl pH 7.4, 100 mM NaCl; details: protein: recombinant; tags: mCherry fusion; label: 5'-FAM
T1 sequence: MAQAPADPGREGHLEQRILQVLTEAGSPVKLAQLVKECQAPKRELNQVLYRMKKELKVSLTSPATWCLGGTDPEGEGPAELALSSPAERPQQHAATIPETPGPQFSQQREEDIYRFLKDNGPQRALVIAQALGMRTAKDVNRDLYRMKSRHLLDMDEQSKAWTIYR

ZBP1-RHIM1 (residues 168-224) (from UniProt Q9H171) I206A; Q207A; I208A; G209A
response ([1]; parent: est. 1900): 1200

human ZBP1-Zαβ (residues 1-166) (from UniProt Q9H171 1-166) (domain or fragment)
stoichiometry N [2]: 2 | stoichiometry N [3]: 2

ZBP1-RHIM 1 + 2 (residues 168-280) (from UniProt Q9H171) I206A; Q207A; I208A; G209A
response ([1]; parent: est. 2300): 880

B1: ZBP1-RHIM1 + 2 AAAA (domain or fragment, human, UniProt Q9H171 168-280, looked up)
chain: EDSGRRAKSASIIYQHNPINMICQNGPNSWISIANSEAAAAAHGNIITRQTVSREDGSAGPRHLPSMAPGDSSTWGTLVDPWGPQDIHMEQSILRRVQLGHSNEMRLHGVPSE
notes: also called 4 A mutant of RHIM 1 + 2; 4 A; source: E. coli BL21 Codonplus (DE3)-RIPL, purified (Ni-NTA, Superdex 200 10/300)
binding result [4]: binds

B2: ZBP1-RHIM1 AAAA (domain or fragment, human, UniProt Q9H171 168-224, looked up)
chain: EDSGRRAKSASIIYQHNPINMICQNGPNSWISIANSEAAAAAHGNIITRQTVSREDG
notes: also called 4 A mutant of ZBP1-RHIM 1; 4 A; source: E. coli BL21 Codonplus (DE3)-RIPL, purified (Ni-NTA, Superdex 200 10/300)
binding result [4]: binds

B3: ZBP1-RHIM 1 + 2 (residues 168-280) (domain or fragment, human, UniProt Q9H171 168-280, looked up)
chain: B1 chain with A39I, A40Q, A41I, A42G
notes: the tag is inferred from the purification; also called RHIM 1 + 2 high-oligomer seed; source: E. coli BL21 Codonplus (DE3)-RIPL, purified (Ni-NTA, Superdex 200 10/300)
binding result [5]: binds

B4: ZBP1-RHIM1 (residues 168-224) (domain or fragment, human, UniProt Q9H171 168-224, looked up)
chain: B2 chain with A39I, A40Q, A41I, A42G
notes: the tag is inferred from the purification; source: E. coli BL21 Codonplus (DE3)-RIPL, purified (Ni-NTA, Superdex 200 10/300)
binding result [5]: binds

ACGCGCGCGCGUUUUUGCGCGCGCGC (structured_RNA, 2'-O-methyl-8-methylguanosine (m8Gm), positions not given) [Z-RNA]
binding result [6]: binds
